Results published in publication PMC5462532.

How the values were obtained:
[1] = biological target: UbcH7 (C17S, C86K, C137S)∼Ub conjugate (for ITC) (human) (UniProt P68036); assay: ITC; 250-300 μM RING1 constructs in the syringe, 25-30 μM E2 or E2∼Ub in the cell; 293 K; 25 mM Hepes pH 7.5, 150 mM NaCl, 0.5 mM TCEP; 1:1 fit; repeated twice, averages
[2] = biological target: UbcH7 (wild type, for ITC) (human) (UniProt P68036); assay: as above
[3] = biological target: HHARI of the HHARI/UbcH7 complex analysed by SEC-MALS (human) (UniProt Q9Y4X5); assay: SEC-MALS; HHARI/UbcH7 complex at 1.5 mg/ml in 25 mM MOPS, 150 mM NaCl, pH 7.5; Superose 6 Increase 3.2/300; room temperature

Row | Substance | Kd [1] [nM] | dH [1] [kcal/mol] | stoichiometry N [1] | Kd [2] [nM] | dH [2] [kcal/mol] | stoichiometry N [2] | stoichiometry N [3]
1 | HHARI RING1 (aa 177-270), wild type (from UniProt Q9Y4X5 177-270) (domain or fragment) | 116 | 3.7 | 1 | 294 | 4.3 | 1 | –
2 | UbcH7 of the HHARI/UbcH7 complex analysed by SEC-MALS (from UniProt P68036 1-154) (enzyme) | – | – | – | – | – | – | 1
